Experimental data taken from patent publication US20150344570A1 (published 2015).

T1: FcγRIIb (human, UniProt P31994 43-217)
T1 construct: extracellular domain; Soluble extracellular domain with a C-terminal His tag, expressed in FreeStyle293 cells; also called FcgRIIb; 2b; not shown: His tag attached to the C terminus
T1 sequence (looked up): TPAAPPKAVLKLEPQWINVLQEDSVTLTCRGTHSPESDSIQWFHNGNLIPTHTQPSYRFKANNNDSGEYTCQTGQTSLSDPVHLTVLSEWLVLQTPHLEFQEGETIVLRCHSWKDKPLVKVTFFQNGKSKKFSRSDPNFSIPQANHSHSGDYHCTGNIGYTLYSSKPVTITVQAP


Assays:
FcγRIIIa [1] = biological target: T2, FcγRIIIa (human, UniProt P08637 17-208); assay: SPR; He/Con_3a (FcγRIIIa) divided by He/Con_2b (FcγRIIb)
T2 construct: extracellular domain; Soluble extracellular domain with a C-terminal His tag; also called FcgRIIIa; 3a; not shown: His tag attached to the C terminus

FcγRIIIa [2] = biological target: T2, FcγRIIIa; assay: SPR (Biacore), antibody captured on chip, FcγR as analyte
FcγRIIb = biological target: T1, FcγRIIb; assay: as above

T2 sequence (P08637 17-208): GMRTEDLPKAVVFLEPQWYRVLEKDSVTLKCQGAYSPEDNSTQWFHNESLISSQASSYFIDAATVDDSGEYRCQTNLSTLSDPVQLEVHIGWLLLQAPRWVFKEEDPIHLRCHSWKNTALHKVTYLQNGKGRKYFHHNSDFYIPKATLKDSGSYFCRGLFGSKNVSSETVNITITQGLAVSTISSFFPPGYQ

Binder	He_3a/2b (IIIa/IIb) (FcγRIIIa [1])	He/Con_3a (FcγRIIIa [2])	He/Con_2b (FcγRIIb)
GpH7-A5/GpH7-B3 variant P238_19Q/GpL16-k0 (antibody, human IgG1, kappa, Heterodimerized anti-glypican-3 IgG1; the mutation is in the GpH7-B3 chain only; also called He Ab) heavy 1: not shown heavy 2: not shown light: DIVMTQSPLSLPVTPGEPASISCQASESLVHSNRNTYLHWYLQKPGQSPQLLIYKVSNRFSGVPDRFSGSGSGTDFTLKISRVEAEDVGVYYCSQNTHVPPTFGQGTKVEIERTVAAPSVFIFPPSDEQLKSGTASVVCLLNNFYPREAKVQWKVDNALQSGNSQESVTEQDSKDSTYSLSSTLTLSKADYEKHKVYACEVTHQGLSSPVTKSFNRGEC	0.51 ratio	55.8 relative binding, GpH7-A5/GpH7-B3/GpL16-k0 = 100	110 relative binding, GpH7-A5/GpH7-B3/GpL16-k0 = 100
GpH7-A5/GpH7-B3 variant S239_04F/GpL16-k0 (antibody, human IgG1, kappa, Heterodimerized anti-glypican-3 IgG1; the mutation is in the GpH7-B3 chain only; also called He Ab) heavy 1: not shown heavy 2: not shown light: DIVMTQSPLSLPVTPGEPASISCQASESLVHSNRNTYLHWYLQKPGQSPQLLIYKVSNRFSGVPDRFSGSGSGTDFTLKISRVEAEDVGVYYCSQNTHVPPTFGQGTKVEIERTVAAPSVFIFPPSDEQLKSGTASVVCLLNNFYPREAKVQWKVDNALQSGNSQESVTEQDSKDSTYSLSSTLTLSKADYEKHKVYACEVTHQGLSSPVTKSFNRGEC	0.57 ratio	25.3 relative binding, GpH7-A5/GpH7-B3/GpL16-k0 = 100	44.1 relative binding, GpH7-A5/GpH7-B3/GpL16-k0 = 100
GpH7-A5/GpH7-B3 variant S239_07I/GpL16-k0 (antibody, human IgG1, kappa, Heterodimerized anti-glypican-3 IgG1; the mutation is in the GpH7-B3 chain only; also called He Ab) heavy 1: not shown heavy 2: not shown light: DIVMTQSPLSLPVTPGEPASISCQASESLVHSNRNTYLHWYLQKPGQSPQLLIYKVSNRFSGVPDRFSGSGSGTDFTLKISRVEAEDVGVYYCSQNTHVPPTFGQGTKVEIERTVAAPSVFIFPPSDEQLKSGTASVVCLLNNFYPREAKVQWKVDNALQSGNSQESVTEQDSKDSTYSLSSTLTLSKADYEKHKVYACEVTHQGLSSPVTKSFNRGEC	0.74 ratio	79.3 relative binding, GpH7-A5/GpH7-B3/GpL16-k0 = 100	107 relative binding, GpH7-A5/GpH7-B3/GpL16-k0 = 100
GpH7-A5/GpH7-B3 variant S239_03V/GpL16-k0 (antibody, human IgG1, kappa, Heterodimerized anti-glypican-3 IgG1; the mutation is in the GpH7-B3 chain only; also called He Ab) heavy 1: not shown heavy 2: not shown light: DIVMTQSPLSLPVTPGEPASISCQASESLVHSNRNTYLHWYLQKPGQSPQLLIYKVSNRFSGVPDRFSGSGSGTDFTLKISRVEAEDVGVYYCSQNTHVPPTFGQGTKVEIERTVAAPSVFIFPPSDEQLKSGTASVVCLLNNFYPREAKVQWKVDNALQSGNSQESVTEQDSKDSTYSLSSTLTLSKADYEKHKVYACEVTHQGLSSPVTKSFNRGEC	0.71 ratio	76.6 relative binding, GpH7-A5/GpH7-B3/GpL16-k0 = 100	108 relative binding, GpH7-A5/GpH7-B3/GpL16-k0 = 100
GpH7-A5/GpH7-B3 variant S239_05P/GpL16-k0 (antibody, human IgG1, kappa, Heterodimerized anti-glypican-3 IgG1; the mutation is in the GpH7-B3 chain only; also called He Ab) heavy 1: not shown heavy 2: not shown light: DIVMTQSPLSLPVTPGEPASISCQASESLVHSNRNTYLHWYLQKPGQSPQLLIYKVSNRFSGVPDRFSGSGSGTDFTLKISRVEAEDVGVYYCSQNTHVPPTFGQGTKVEIERTVAAPSVFIFPPSDEQLKSGTASVVCLLNNFYPREAKVQWKVDNALQSGNSQESVTEQDSKDSTYSLSSTLTLSKADYEKHKVYACEVTHQGLSSPVTKSFNRGEC	0.15 ratio	14.9 relative binding, GpH7-A5/GpH7-B3/GpL16-k0 = 100	102 relative binding, GpH7-A5/GpH7-B3/GpL16-k0 = 100
GpH7-A5/GpH7-B3 variant P238_20W/GpL16-k0 (antibody, human IgG1, kappa, Heterodimerized anti-glypican-3 IgG1; the mutation is in the GpH7-B3 chain only; also called He Ab) heavy 1: not shown heavy 2: not shown light: DIVMTQSPLSLPVTPGEPASISCQASESLVHSNRNTYLHWYLQKPGQSPQLLIYKVSNRFSGVPDRFSGSGSGTDFTLKISRVEAEDVGVYYCSQNTHVPPTFGQGTKVEIERTVAAPSVFIFPPSDEQLKSGTASVVCLLNNFYPREAKVQWKVDNALQSGNSQESVTEQDSKDSTYSLSSTLTLSKADYEKHKVYACEVTHQGLSSPVTKSFNRGEC	0.4 ratio	49.7 relative binding, GpH7-A5/GpH7-B3/GpL16-k0 = 100	123 relative binding, GpH7-A5/GpH7-B3/GpL16-k0 = 100
GpH7-A5/GpH7-B3 variant S239_06M/GpL16-k0 (antibody, human IgG1, kappa, Heterodimerized anti-glypican-3 IgG1; the mutation is in the GpH7-B3 chain only; also called He Ab) heavy 1: not shown heavy 2: not shown light: DIVMTQSPLSLPVTPGEPASISCQASESLVHSNRNTYLHWYLQKPGQSPQLLIYKVSNRFSGVPDRFSGSGSGTDFTLKISRVEAEDVGVYYCSQNTHVPPTFGQGTKVEIERTVAAPSVFIFPPSDEQLKSGTASVVCLLNNFYPREAKVQWKVDNALQSGNSQESVTEQDSKDSTYSLSSTLTLSKADYEKHKVYACEVTHQGLSSPVTKSFNRGEC	0.78 ratio	78.2 relative binding, GpH7-A5/GpH7-B3/GpL16-k0 = 100	101 relative binding, GpH7-A5/GpH7-B3/GpL16-k0 = 100
GpH7-A5/GpH7-B3 variant S239_01G/GpL16-k0 (antibody, human IgG1, kappa, Heterodimerized anti-glypican-3 IgG1; also called He Ab) heavy 1: not shown heavy 2: not shown light: DIVMTQSPLSLPVTPGEPASISCQASESLVHSNRNTYLHWYLQKPGQSPQLLIYKVSNRFSGVPDRFSGSGSGTDFTLKISRVEAEDVGVYYCSQNTHVPPTFGQGTKVEIERTVAAPSVFIFPPSDEQLKSGTASVVCLLNNFYPREAKVQWKVDNALQSGNSQESVTEQDSKDSTYSLSSTLTLSKADYEKHKVYACEVTHQGLSSPVTKSFNRGEC	0.53 ratio	76.2 relative binding, GpH7-A5/GpH7-B3/GpL16-k0 = 100	144 relative binding, GpH7-A5/GpH7-B3/GpL16-k0 = 100

Now from value to binder:

He_3a/2b (IIIa/IIb) (FcγRIIIa [1])	He/Con_3a (FcγRIIIa [2])	He/Con_2b (FcγRIIb)	Binder
0.73 ratio	25.6 relative binding, GpH7-A5/GpH7-B3/GpL16-k0 = 100	34.9 relative binding, GpH7-A5/GpH7-B3/GpL16-k0 = 100	GpH7-A5/GpH7-B3 variant S239_15Y/GpL16-k0 (antibody, human IgG1, kappa, Heterodimerized anti-glypican-3 IgG1; the mutation is in the GpH7-B3 chain only; also called He Ab) heavy 1: not shown heavy 2: not shown light: DIVMTQSPLSLPVTPGEPASISCQASESLVHSNRNTYLHWYLQKPGQSPQLLIYKVSNRFSGVPDRFSGSGSGTDFTLKISRVEAEDVGVYYCSQNTHVPPTFGQGTKVEIERTVAAPSVFIFPPSDEQLKSGTASVVCLLNNFYPREAKVQWKVDNALQSGNSQESVTEQDSKDSTYSLSSTLTLSKADYEKHKVYACEVTHQGLSSPVTKSFNRGEC
0.44 ratio	17 relative binding, GpH7-A5/GpH7-B3/GpL16-k0 = 100	39.1 relative binding, GpH7-A5/GpH7-B3/GpL16-k0 = 100	GpH7-A5/GpH7-B3 variant S239_12R/GpL16-k0 (antibody, human IgG1, kappa, Heterodimerized anti-glypican-3 IgG1; the mutation is in the GpH7-B3 chain only; also called He Ab) heavy 1: not shown heavy 2: not shown light: DIVMTQSPLSLPVTPGEPASISCQASESLVHSNRNTYLHWYLQKPGQSPQLLIYKVSNRFSGVPDRFSGSGSGTDFTLKISRVEAEDVGVYYCSQNTHVPPTFGQGTKVEIERTVAAPSVFIFPPSDEQLKSGTASVVCLLNNFYPREAKVQWKVDNALQSGNSQESVTEQDSKDSTYSLSSTLTLSKADYEKHKVYACEVTHQGLSSPVTKSFNRGEC
0.59 ratio	29.2 relative binding, GpH7-A5/GpH7-B3/GpL16-k0 = 100	49.4 relative binding, GpH7-A5/GpH7-B3/GpL16-k0 = 100	GpH7-A5/GpH7-B3 variant S239_16H/GpL16-k0 (antibody, human IgG1, kappa, Heterodimerized anti-glypican-3 IgG1; the mutation is in the GpH7-B3 chain only; also called He Ab) heavy 1: not shown heavy 2: not shown light: DIVMTQSPLSLPVTPGEPASISCQASESLVHSNRNTYLHWYLQKPGQSPQLLIYKVSNRFSGVPDRFSGSGSGTDFTLKISRVEAEDVGVYYCSQNTHVPPTFGQGTKVEIERTVAAPSVFIFPPSDEQLKSGTASVVCLLNNFYPREAKVQWKVDNALQSGNSQESVTEQDSKDSTYSLSSTLTLSKADYEKHKVYACEVTHQGLSSPVTKSFNRGEC
0.68 ratio	95.3 relative binding, GpH7-A5/GpH7-B3/GpL16-k0 = 100	140 relative binding, GpH7-A5/GpH7-B3/GpL16-k0 = 100	GpH7-A5/GpH7-B3 variant S239_08L/GpL16-k0 (antibody, human IgG1, kappa, Heterodimerized anti-glypican-3 IgG1; the mutation is in the GpH7-B3 chain only; also called He Ab) heavy 1: not shown heavy 2: not shown light: DIVMTQSPLSLPVTPGEPASISCQASESLVHSNRNTYLHWYLQKPGQSPQLLIYKVSNRFSGVPDRFSGSGSGTDFTLKISRVEAEDVGVYYCSQNTHVPPTFGQGTKVEIERTVAAPSVFIFPPSDEQLKSGTASVVCLLNNFYPREAKVQWKVDNALQSGNSQESVTEQDSKDSTYSLSSTLTLSKADYEKHKVYACEVTHQGLSSPVTKSFNRGEC
0.66 ratio	56.9 relative binding, GpH7-A5/GpH7-B3/GpL16-k0 = 100	86.1 relative binding, GpH7-A5/GpH7-B3/GpL16-k0 = 100	GpH7-A5/GpH7-B3 variant S239_19Q/GpL16-k0 (antibody, human IgG1, kappa, Heterodimerized anti-glypican-3 IgG1; the mutation is in the GpH7-B3 chain only; also called He Ab) heavy 1: not shown heavy 2: not shown light: DIVMTQSPLSLPVTPGEPASISCQASESLVHSNRNTYLHWYLQKPGQSPQLLIYKVSNRFSGVPDRFSGSGSGTDFTLKISRVEAEDVGVYYCSQNTHVPPTFGQGTKVEIERTVAAPSVFIFPPSDEQLKSGTASVVCLLNNFYPREAKVQWKVDNALQSGNSQESVTEQDSKDSTYSLSSTLTLSKADYEKHKVYACEVTHQGLSSPVTKSFNRGEC
0.48 ratio	11.9 relative binding, GpH7-A5/GpH7-B3/GpL16-k0 = 100	24.7 relative binding, GpH7-A5/GpH7-B3/GpL16-k0 = 100	GpH7-A5/GpH7-B3 variant S239_11K/GpL16-k0 (antibody, human IgG1, kappa, Heterodimerized anti-glypican-3 IgG1; the mutation is in the GpH7-B3 chain only; also called He Ab) heavy 1: not shown heavy 2: not shown light: DIVMTQSPLSLPVTPGEPASISCQASESLVHSNRNTYLHWYLQKPGQSPQLLIYKVSNRFSGVPDRFSGSGSGTDFTLKISRVEAEDVGVYYCSQNTHVPPTFGQGTKVEIERTVAAPSVFIFPPSDEQLKSGTASVVCLLNNFYPREAKVQWKVDNALQSGNSQESVTEQDSKDSTYSLSSTLTLSKADYEKHKVYACEVTHQGLSSPVTKSFNRGEC
